Article PMC3662644, “Genome wide analysis of the complete GlnR nitrogen-response regulon in Mycobacterium smegmatis”

T1: His-GlnR (Mycobacterium smegmatis (mc2 155?)) (UniProt A0R4C4)
T1 sequence: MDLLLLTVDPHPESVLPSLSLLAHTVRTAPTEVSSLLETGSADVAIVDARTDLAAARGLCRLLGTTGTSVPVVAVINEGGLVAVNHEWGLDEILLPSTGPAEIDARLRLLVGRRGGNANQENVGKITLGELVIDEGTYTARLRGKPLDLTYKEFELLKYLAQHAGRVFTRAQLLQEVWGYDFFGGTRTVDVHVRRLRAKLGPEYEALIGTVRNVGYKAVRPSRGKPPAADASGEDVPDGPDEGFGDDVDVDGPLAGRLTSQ

T2: His-GlnR (Mycobacterium smegmatis, UniProt A0R4C4 1-261)
T2 sequence: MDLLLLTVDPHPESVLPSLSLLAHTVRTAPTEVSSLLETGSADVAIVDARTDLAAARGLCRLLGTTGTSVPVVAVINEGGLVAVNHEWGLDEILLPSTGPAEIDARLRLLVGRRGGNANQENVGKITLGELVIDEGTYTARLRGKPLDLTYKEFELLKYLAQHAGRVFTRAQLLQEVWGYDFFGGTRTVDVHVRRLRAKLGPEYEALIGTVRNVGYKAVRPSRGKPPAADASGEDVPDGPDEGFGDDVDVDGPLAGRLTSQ


How the values were obtained:
[1] = biological target: T1, His-GlnR (Mycobacterium smegmatis (mc2 155?)); experiment: EMSA; settings: EMSA: 0.4 ng DIG-labelled DNA, 0-0.9 ug His-GlnR, 0.5 ug poly d(A-T), 25 mM Hepes pH 7.9, 150 mM NaCl, 2.5 mM MgCl2, 37 C, 15 min
His-GlnR = biological target: T2, His-GlnR; experiment: EMSA; EMSA: 0.4 ng DIG-labelled DNA, 0-0.9 ug His-GlnR, 0.5 ug poly d(A-T), 25 mM Hepes pH 7.9, 150 mM NaCl, 2.5 mM MgCl2, 37 C, 15 min; settings: protein: recombinant; tags: N-terminal His6 (pET28b); chain copies: 2; label: DIG 3'-end; blunt

| Molecule | binding [1] | binding result (His-GlnR) |
| --- | --- | --- |
| AACGGTGTGCTTCCTCCGCTGTAGGTGGATCACCGCGTGAAGCGGGTGACCGGTGCAGGGTCGGCGCAACTTACTGCGCTTGGAAAATGCTCGCGCAGGAACGTTTCGGTGGATCCCGTCGGCAATGTCGGTGACGTTAACTCTGCACGGCCCCGCGTTACGTTGTGGTGACCTGACGCAACGGATTTCGTTGTGTGTCCGGTAG (double strand) [peak 22 MSMEG2526 promoter] | binds |  |
| AAGCCGGATCCAGACGTGTGTTTCCGCGGCATCGGGCGACTGTGTGCTCGATGTTTAGACTTTACTGCTTGGTAACCTACGGAGCCGTAGGTTACGGTAGCGTAGGTAGACGAAAGGAGGGTTGCCAATGGCTGTTACCGACGTCCCGGCGTTCGCGCATCTGACCGAAGCCGATATCGAGAACCTGGGTATCGAGC (double strand) [peak 13 MSMEG1886 promoter] | binds |  |
| AGCTTGCCTACGAGCTCGAGGAGGCGCGGCCCTGGGCGCGCATACAAGATGTCACCGCGACCAAGCAGCCGCGTAAGCGGGCCGCGAAGAAGGCCACGAAAACCACGGAGTAGGGCACAAACCGGCGTGGCGCGTGACATGACCCCGTAACCCGGGCCGTGTCCTGTTAACGAACTCGACACCGCGAACGGCTGCGGGTGAAACATCGGGCTCGCAGCATCCCTCATT (double strand) [peak 21 MSMEG2522 promoter] | binds |  |
| GACGCGTCCATTCGGTTGTCCTCCCCGTTGTCGACGGGCCCGAAGCTACCCACGCCATGTTGCGACGACGTTGCGGTTGCGTTCGAACCCGTTGACATCAGCCAGAATTGACGCACGCGTCGGACTACCAGCGGTAGTCGAGGAACTTCCCGTCGAAGGTCACCACCACCCGGTCCCCGTCTGGATCGGGACGACGCTGGATGTCCACCTTGAAGTTGATGGCGCTCATG (double strand) [peak 42 MSMEG5358 promoter] | binds |  |
| GAGTGTTTGCGGGGCGTTACAGCCGGCGTTGGCTGTGCAACGACCTGTGCTTTGTCGGCGGGAAACATGAGCGTAACAGTGATCGGGATTGCGTTCACTTTCCGGAAACGCAACGGCAGCACCGGCGAAACGCCGGCAACAGAATCTCATCGGGAGGCCGATCCGTCGGCGCACTTCCCAAGGAGGTTCACACAAA (double strand) | binds |  |
| GCGCTGCTGGTCATGGGTTTTCTCTCTGGCTAGGGGCGCTGCCGCCAGCTCTTACCTGTCAGATGACAGATAACAATGGGCGCGTGTCCTCGGCGTCACCCGAATGTTTCGTTCATGTAGCCGTCGGTAAGCATTCGGTTGCAGAACCCTCACCGCCCGTGGGCCTGTCACAATCGCCGGTATGCCCGCCCCCGACCTCGTGCAGCGCCACATCGACG (double strand) [peak 17 MSMEG2184 promoter] | binds |  |
| GTACGGGTCGCGCACCTTGTCGGTGAGGATGAGGATCGCATCGACGATGCCCCAGATGAAGGCACCGATGCCACACGTCACCAGGCCCACGATCAGCTGCGCGATGCCGAGCCCGGTCTGCCCCAGATAGATCCGCCCGAACCCGACGAAACCGACCAGGCCGATCAACTGCAACAGGC (double strand) [MSMEG3224 promoter (negative control)] | no binding |  |
| Peak 24 GG (dsDNA) DNA 1: TCATGTCGAGGTTAGGTTGTTCGTCGGACACAGACATT DNA 2: AATGTCTGTGTCCGACGAACAACCTAACCTCGACATGA |  | no binding |
| Peak 24 G (dsDNA) DNA 1: TCATGTCGAGGTTAGTTTGTTCGTCGCACACAGACATT DNA 2: AATGTCTGTGTGCGACGAACAAACTAACCTCGACATGA |  | no binding |
| Peak 2 GG (dsDNA) DNA 1: GCAATCGCGGGGTAGGGCCGTGGAAGGAGAGCCTGCCT DNA 2: AGGCAGGCTCTCCTTCCACGGCCCTACCCCGCGATTGC |  | no binding |
| Peak 2 G (dsDNA) DNA 1: GCAATCGCGGGGTAGCGCCGTGGAAGCAGAGCCTGCCT DNA 2: AGGCAGGCTCTGCTTCCACGGCGCTACCCCGCGATTGC |  | no binding |
